± gives the standard deviation of the averaged measurements.
Tested on: ATP
Experiment: switch fluorescence ratio, 500 uM ATP over buffer (Cy3 cluster intensity, sum of 5 cycles each) (fold (ratio)); higher = stronger signal-on switching upon ATP binding; sequences stand for … in TCGTCGGCAGCGTCAGATGTGTATAAGAGACAGTTTTTTTTTTTTTTTTTTTTTTTTT…TC
Conditions: aptamer strand: ATP DNA aptamer (quencher-CACCTGGGGGAGTATTGCGGAGGAAGG + anchor), 100 nM annealed; ATP concentration: 500 uM
Procedure, shortened: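 Values give the fluorescence ratio for each switch-domain sequence, averaged from per-cluster ratios of summed target-cycle to summed buffer-cycle Cy3 intensity. The Cy3-labelled switching-strand clusters sat on a modified Illumina MiSeq flow-cell, were annealed to 100 nM quencher-labelled ATP aptamer, and were imaged in selection buffer, then after 15 min with 500 uM ATP at 22 °C. Five cycles ran with NaOH stripping and re-annealing between them, and clusters outside 100-1000 RFU were excluded.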
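Note: ATP exposure 15 min at 22 °C before imaging.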

Sequence	switch fluorescence ratio
CAGTCGGAGA	1.02 ± 0.037
CAGTCTGCTC	1.05 ± 0.03
CAGTCTGCTG	1.0037 ± 0.00071
CAGTCTGGTA	0.9966 ± 0.0042
CAGTGACTTT	1.022 ± 0.0014
CAGTGCATC	0.972 ± 0.053
CAGTGCGTTT	1.01 ± 0.013
CAGTGGATAC	1.2218 ± 0.00027
CAGTGGGAAA	1.01 ± 0.029
CAGTGGTGGG	1.01 ± 0.04
CAGTGTAGGG	1.017 ± 0.01
CAGTGTGCAG	0.9602 ± 0.0028
CAGTGTTAGG	1 ± 0.034
CAGTTAAGTA	0.973 ± 0.028
CAGTTAGAAA	0.9952 ± 0.0075
CAGTTCCCGG	1.02 ± 0.063
CAGTTCGTGT	1.02 ± 0.022
CAGTTGAACT	1.0209 ± 0.00023
CAGTTGACTC	1 ± 0.072
CAGTTGAGAA	1.02 ± 0.011
CAGTTGGACA	0.967 ± 0.031
CAGTTGGAGC	0.981 ± 0.06
CAGTTGGGAG	1.01 ± 0.029
CAGTTTAAGT	0.993 ± 0.01
CAGTTTTAGT	1.01 ± 0.032

Sequence	switch fluorescence ratio
CAGTTTTTGG	0.992 ± 0.013
CATAAAACGG	1.0263 ± 8.3e-05
CATAAAGAGT	0.996 ± 0.01
CATAAATGTT	1.02 ± 0.016
CATAACGTAC	1.97 ± 0.21
CATAAGATCC	0.994 ± 0.025
CATAAGTTAT	1.02 ± 0.02
CATAATGGTG	1.02 ± 0.013
CATACGTAGT	1.01 ± 0.034
CATACTTTTT	1.02 ± 0.018
CATAGAGTTG	1.03 ± 0.084
CATAGCCGGT	1.012 ± 0.0031
CATAGCGATA	3.48 ± 0.28
CATAGGCATT	1.03 ± 0.016
CATAGGCCGT	1.03 ± 0.047
CATAGGGCAG	1.03 ± 0.012
CATAGGGGCG	0.984 ± 0.023
CATAGTTGCG	1.02 ± 0.04
CATAGTTGTT	1.025 ± 0.0018
CATAGTTTTT	1.02 ± 0.025
CATATACGAG	1.11 ± 0.015
CATATCATAC	1.079 ± 0.0078
CATATCTAAG	1.002 ± 0.0019
CATATCTAGC	0.997 ± 0.034
CATATGATTT	0.993 ± 0.019

Sequence	switch fluorescence ratio
CATATGGGCG	1.03 ± 0.064
CATATTATGT	1.02 ± 0.011
CATCATTATA	0.9866 ± 0.0079
CATCCTTTTA	1.054 ± 0.0037
CATCGATGGT	1.004 ± 0.0026
CATCGATGTT	1.025 ± 0.0064
CATCGGCCGC	1.0223 ± 0.00032
CATCGGCGAT	1.56 ± 0.038
CATCGGGTAG	0.996 ± 0.02
CATCGTAATT	1.07 ± 0.042
CATCGTGACT	0.994 ± 0.028
CATCGTGCTG	0.978 ± 0.052
CATCGTGGTA	1.04 ± 0.11
CATCTATTTT	1 ± 0.035
CATCTCGTTT	1.02 ± 0.042
CATCTGGGCA	1.03 ± 0.013
CATCTGGTGC	1.63 ± 0.19
CATCTTCGCT	1.0246 ± 7.4e-05
CATCTTGAAA	1.028 ± 0.0097
CATGAAGGTA	0.9566 ± 0.0087
CATGAATGGG	1.01 ± 0.032
CATGAATTTT	0.982 ± 0.047
CATGACGGTT	0.978 ± 0.046
CATGAGGGGG	1.01 ± 0.059
CATGAGTTGG	0.966 ± 0.041

Sequence	switch fluorescence ratio
CATGATACGG	1.03 ± 0.011
CATGATGCTG	1.01 ± 0.033
CATGATGGAG	0.999 ± 0.032
CATGCGCTGG	1.17 ± 0.13
CATGCTGCGG	0.999 ± 0.026
CATGCTGGGC	1.0235 ± 0.00067
CATGCTGTA	0.981 ± 0.025
CATGGCCAGG	1.06 ± 0.079
CATGGCGAAG	1 ± 0.034
CATGGCGGAG	1.03 ± 0.023
CATGGGATGG	1.01 ± 0.0074
CATGGGGAAG	1.02 ± 0.011
CATGGGGCGC	1.012 ± 0.0071
CATGGGTTCG	1 ± 0.0066
CATGGGTTTG	0.9923 ± 0.0031
CATGGTTGGG	0.984 ± 0.037
CATGGTTTTG	1 ± 0.023
CATGTAATTG	1.02 ± 0.015
CATGTAGTA	0.987 ± 0.028
CATGTATGGG	0.9833 ± 0.0095
CATGTCTGCT	0.9777 ± 0.0032
CATGTGCGAG	1.01 ± 0.021
CATGTGGGGG	0.985 ± 0.027
CATGTGTGGG	1.01 ± 0.029
CATGTTGGCT	1.012 ± 0.0039

Sequence	switch fluorescence ratio
CATGTTGGTT	0.992 ± 0.032
CATTAAGGTT	0.996 ± 0.01
CATTAATCAT	0.995 ± 0.048
CATTAATGTA	0.9977 ± 0.0033
CATTAGAGAC	1.03 ± 0.012
CATTAGGCAA	1.696 ± 0.0032
CATTAGGCTG	1.02 ± 0.015
CATTAGGTGT	1.16 ± 0.037
CATTATCACG	1.075 ± 0.01
CATTATGGGA	1.009 ± 0.0063
CATTCCCTGA	0.981 ± 0.011
CATTCGGGGG	0.997 ± 0.016
CATTCGTCGC	1.12 ± 0.026
CATTCTGTGT	1.019 ± 0.0023
CATTGAAAGA	1.01 ± 0.038
CATTGAAGTG	0.986 ± 0.053
CATTGAATAT	0.996 ± 0.043
CATTGAATCT	1.02 ± 0.02
CATTGACCTT	1.23 ± 0.067
CATTGCAGTG	1.03 ± 0.02
CATTGCTTTT	0.991 ± 0.024
CATTGGACCT	1.29 ± 0.089
CATTGGAGCA	1.027 ± 0.0086
CATTGGGGAG	1.01 ± 0.026
CATTGGGGGA	0.983 ± 0.014

Sequence	switch fluorescence ratio
CATTGGGTTG	0.9633 ± 0.0019
CATTGGTAAT	1.018 ± 0.0059
CATTGGTCAT	0.995 ± 0.045
CATTGTAAAG	1.02 ± 0.033
CATTGTGGGT	0.975 ± 0.019
CATTGTTATC	1.08 ± 0.085
CATTGTTGAC	0.961 ± 0.02
CATTTAATGG	0.997 ± 0.028
CATTTATAAT	1.03 ± 0.02
CATTTATCCT	1.07 ± 0.024
CATTTATGGG	1.015 ± 0.0031
CATTTCAGGT	1.03 ± 0.069
CATTTCGGGT	0.992 ± 0.034
CATTTCTGAG	1.008 ± 0.0061
CATTTCTGTT	1.004 ± 0.0047
CATTTGAAGA	1.01 ± 0.019
CATTTGACGG	0.995 ± 0.024
CATTTGAGGG	0.988 ± 0.034
CATTTGGAAG	1.02 ± 0.061
CATTTGGGCT	1.03 ± 0.039
CATTTTAGGC	1.04 ± 0.067
CATTTTCTAA	1.04 ± 0.047
CATTTTGGGA	0.979 ± 0.03
CATTTTGGTC	1.002 ± 0.0039
CATTTTGTGC	0.988 ± 0.052

Sequence	switch fluorescence ratio
CATTTTGTTT	0.998 ± 0.054
CATTTTTGGG	0.98798 ± 0.00089
CATTTTTTTT	0.995 ± 0.02
CCAAAAGGTT	1.01 ± 0.017
CCAAAATTGG	1.018 ± 0.0052
CCAAAGAATT	1.03 ± 0.059
CCAAAGATAT	1.09 ± 0.03
CCAAAGCCTC	2.69 ± 0.21
CCAAAGGGCC	1.01 ± 0.071
CCAAAGGGGT	1.06 ± 0.046
CCAAAGTACG	1.25 ± 0.018
CCAACATGGG	1.03 ± 0.02
CCAACGGCCA	1.2 ± 0.049
CCAACGGGGG	1.061 ± 0.0019
CCAAGCAGGG	1.66 ± 0.059
CCAAGGGAAA	0.9822 ± 0.0032
CCAAGGGGGA	1.09 ± 0.1
CCAAGGTTCG	0.945 ± 0.053
CCAAGTAATT	1.2 ± 0.019
CCAAGTAGGC	1.13 ± 0.022
CCAAGTGAC	1.26 ± 0.028
CCAAGTGCGG	1.01 ± 0.029
CCAAGTTGCC	0.9929 ± 0.0092
CCAATATTTA	0.994 ± 0.03
CCAATCAGGT	1.08 ± 0.097

Sequence	switch fluorescence ratio
CCAATGGTGA	1.16 ± 0.068
CCAATTAATC	1.03 ± 0.032
CCAATTTTTA	1.01 ± 0.03
CCACCTATCT	1.09 ± 0.052
CCACGAATT	1.012 ± 0.0096
CCACGGCAGG	1.229 ± 0.011
CCACGGGATT	1.08 ± 0.035
CCACTAATGG	1.03 ± 0.013
CCACTATTAG	1.03 ± 0.021
CCACTCCGGG	1.192 ± 0.0055
CCACTCTGGG	0.9984 ± 0.0068
CCACTGATCG	1.02 ± 0.022
CCACTGGGCA	1.02 ± 0.042
CCACTGGGTA	1.054 ± 0.0042
CCACTGTTGG	0.992 ± 0.029
CCAGA	1.022 ± 0.006
CCAGAAAAGG	1.31 ± 0.47
CCAGAAAGGA	0.97 ± 0.029
CCAGAAAGTG	1.26 ± 0.38
CCAGAAGTGA	1.08 ± 0.018
CCAGAGGGTG	1.45 ± 0.52
CCAGAGGTAA	1.04 ± 0.027
CCAGCACTTT	1.008 ± 0.002
CCAGCATGGG	1.02 ± 0.015
CCAGCGGCCA	1.02 ± 0.025

From the supplement of paper PMC10126150
